The values that follow come from PMC10765591, “Structural analysis and molecular substrate recognition properties of Arabidopsis thaliana ornithine transcarbamylase, the molecular target of phaseolotoxin produced by Pseudomonas syringae” (Frontiers in Plant Science, 2023).

This experiment deals with Arabidopsis thaliana ornithine transcarbamylase (Arabidopsis thaliana) (UniProt O50039). The experiment can be described thus: crystal structure; AtOTC co-crystallised with 20 mM ornithine or carbamoyl phosphate; HEPES 0.1 M pH 6.0, 0.3 M Li2SO4, PEG 3350, about 20°C; three subunits around a non-crystallographic three-fold axis.

Sequence of Arabidopsis thaliana ornithine transcarbamylase (O50039 53-375): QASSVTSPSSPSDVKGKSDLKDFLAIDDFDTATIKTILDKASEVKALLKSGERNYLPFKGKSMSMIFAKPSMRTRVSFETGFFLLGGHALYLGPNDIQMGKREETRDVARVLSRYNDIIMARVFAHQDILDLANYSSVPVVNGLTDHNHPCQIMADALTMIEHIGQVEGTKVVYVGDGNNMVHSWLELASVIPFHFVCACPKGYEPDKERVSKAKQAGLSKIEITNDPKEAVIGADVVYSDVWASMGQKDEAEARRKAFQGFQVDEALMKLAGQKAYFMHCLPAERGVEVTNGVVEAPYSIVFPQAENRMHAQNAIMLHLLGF

The substance “Arabidopsis thaliana ornithine transcarbamylase (from UniProt O50039 53-375) (enzyme)” gave a stoichiometry N of 3.
